Common to all, as to experiment: BLI heatmap
Assay [1] has as its target T1, IA peptide IAKLDEESILKQK (XAKLDEESILKQK, X = I).
T1 construct: Immobilized on the biolayer interferometry sensor
T1 peptide: IAKLDEESILKQK

For assay [2], the target named is T2, VA peptide VAKLDEESILKQK (XAKLDEESILKQK, X = V).
T2 construct: Immobilized on the biolayer interferometry sensor
T2 peptide: VAKLDEESILKQK

Assay [3] concerns the target T3, F peptide FAKLDEESILKQK (XAKLDEESILKQK, X = F).
T3 construct: Immobilized on the biolayer interferometry sensor
T3 peptide: FAKLDEESILKQK

The source of these data is patent US20210364527A1 (QUANTUM SI, published 2021).

B1: PS407 (other)
chain: MPSNKRQMCLSDIKNSFNESGIVDWHISPRLANEPSEEGDSDLAVQTVPPELKRPPLYAVVLLNDDYTPMEFVIEILQQYFAMNLDQATQVMLTVHYEGKGVAGVYPRDIAETKANQVNNYARSQGHPLLCQIEPKD
In the case of B1, the figures for the binding result in assay [1], in assay [2] and in assay [3] were “no binding”, “no binding” and “binds”, respectively.

B2: PS393 (other)
chain: MSDEDGEDGDENAVGIATRTRTRTKKPTPYRVLLLNDDYTPMEFVVLVLQRFFRMSIEDATRVMLQVHQKGVGVCGVFTYEVAETKVSQVIDFARQNQHPLQCTLEKA
B2: the results for the binding result in assay [1], in assay [2] and in assay [3] were “no binding”, “no binding” and “binds”, respectively.

B3: PS418 (other)
chain: MSDHNIDHDTSVAVHLDVVVREPPMYRVVLLNDDFTPMEFVVELLMHFFRKTAEQATQIMLNIHHEGVGVCGTYPREIAETKVAQVHQHARTNGHPLKCRMEPS
B3: the binding result in assay [1] is reported as “no binding”; in assay [2], “no binding”; in assay [3], “binds”.

B4: PS408 (other)
chain: MTDPPSKGREDVDLATRTKPKTQRPPLYKVLLLNDDFTPMEFVVHILERLFGMTHAQAIEIMLTVHRKGVAVVGVFSHEIAETKVAQVMELARRQQHPLQCTMEKE
As to B4, the values for the binding result in assay [1], in assay [2] and in assay [3] were “no binding”, “no binding” and “binds”, respectively.

B5: PS434 (other)
chain: MSRLPWKQEAKFAATVIIDFPDATLEAPTIEKKEATEQQIEMPWNVVVHNDPVNLMSYVTMVFQRVFGYPRERAEKHMLEVHHSGRSILWSGLRERAELYVQQLHGYLLLATIEKTV
For the molecule B5, the binding result was “no binding” in assay [1], “no binding” in assay [2] and “binds” in assay [3].

B6: PS419 (other)
chain: MEKEQSLCKEKTHVELSEPKHYKVVFHNDDFTTMDFVVKVLQLVFFKSQLQAEDLTMKIHLEGSATAGIYSYDIAQSKAQKTTQMAREEGFPLRLTVEPEDN
As to B6, the binding result in assay [1] is given as “no binding”; in assay [2], “no binding”; in assay [3], “binds”.

B7: PS394 (other)
chain: MAERRDTGDDEGTGLGIATKTRSKTKKPTPYRVLMLNDDYTPMEFVVLCLQRFFRMNMEEATRVMLHVHQKGVGVCGVFSYEVAETKVGQVIDFARANQHPLQCTLEKA
Consider B7, for which the binding result in assay [1] is “no binding”; in assay [2] it was “no binding”; in assay [3], “binds”.

B8: PS395 (other)
chain: MTVSQSKTQGAPAAQSATELEYEGLWRVVVLNDPVNLMSYVVLVFKKVFGFDETTARKHMLEVHEQGRSVVWSGMREKAEAYAFTLQQWHLTTVLEQDEVR
In the case of B8, the binding result in assay [1] is recorded as “no binding”; in assay [2], “no binding”; in assay [3] it was “binds”.

B9: PS409 (other)
chain: MPARLTDIEGEPNTDPVEDVLLADPELKKPQMYAVVMYNDDYTPMEFVVDVLQNHFKHTLDSAISIMLAIHQQGKGIAGIYPKDIAETKAQTVNRKARQAGYPLLSQIEPQG
Take B9: the binding result in assay [1] is “no binding”; in assay [2] it was “no binding”; in assay [3], “binds”.

B10: PS412 (other)
chain: MATKREGSTLLEPTAAKVKPPPLYKVLLLNDDYTPMEFVVLVLKKFFGIDQERATQIMLKVHTEGVGVCGVYPRDIAHTKVEQVVDFARQHQHPLQCTMEES
Regarding B10, the binding result is given as “no binding” in assay [1], “no binding” in assay [2] and “binds” in assay [3].
